Measurements as given in publication PMC9352726 (Nature Communications, 2022).

Assays:
[1] = biological target: T1, purified recombinant YspE1, full length (Yersinia pestis, UniProt A0A3N4BII9 1-626); test: SPR; Biacore T200; […] (0–20 μM) […] (20 mM HEPES pH 7.4, 150 mM NaCl, 3.4 mM EDTA, 0.005% P20); 25 °C; settings: both partners purified
T1 sequence: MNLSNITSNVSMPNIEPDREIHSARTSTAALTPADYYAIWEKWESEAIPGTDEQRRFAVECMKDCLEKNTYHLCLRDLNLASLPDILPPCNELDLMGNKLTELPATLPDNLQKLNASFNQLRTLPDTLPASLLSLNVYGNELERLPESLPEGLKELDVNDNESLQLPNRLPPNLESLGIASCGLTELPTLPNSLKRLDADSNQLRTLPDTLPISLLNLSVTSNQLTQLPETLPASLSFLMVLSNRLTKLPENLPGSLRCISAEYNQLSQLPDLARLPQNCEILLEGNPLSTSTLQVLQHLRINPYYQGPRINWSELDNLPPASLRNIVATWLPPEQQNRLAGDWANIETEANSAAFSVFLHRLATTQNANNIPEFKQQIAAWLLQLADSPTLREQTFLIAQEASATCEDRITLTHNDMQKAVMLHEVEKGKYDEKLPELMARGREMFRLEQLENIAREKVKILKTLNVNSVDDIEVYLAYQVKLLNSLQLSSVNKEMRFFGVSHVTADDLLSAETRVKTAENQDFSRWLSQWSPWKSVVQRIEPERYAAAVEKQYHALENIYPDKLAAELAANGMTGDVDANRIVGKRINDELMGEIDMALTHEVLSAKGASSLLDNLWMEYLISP

[2] = biological target: T2, purified recombinant YspE2, full length (Yersinia pestis, UniProt A0AAP0VE47 1-605); test: as above; settings: both partners purified
T2 sequence: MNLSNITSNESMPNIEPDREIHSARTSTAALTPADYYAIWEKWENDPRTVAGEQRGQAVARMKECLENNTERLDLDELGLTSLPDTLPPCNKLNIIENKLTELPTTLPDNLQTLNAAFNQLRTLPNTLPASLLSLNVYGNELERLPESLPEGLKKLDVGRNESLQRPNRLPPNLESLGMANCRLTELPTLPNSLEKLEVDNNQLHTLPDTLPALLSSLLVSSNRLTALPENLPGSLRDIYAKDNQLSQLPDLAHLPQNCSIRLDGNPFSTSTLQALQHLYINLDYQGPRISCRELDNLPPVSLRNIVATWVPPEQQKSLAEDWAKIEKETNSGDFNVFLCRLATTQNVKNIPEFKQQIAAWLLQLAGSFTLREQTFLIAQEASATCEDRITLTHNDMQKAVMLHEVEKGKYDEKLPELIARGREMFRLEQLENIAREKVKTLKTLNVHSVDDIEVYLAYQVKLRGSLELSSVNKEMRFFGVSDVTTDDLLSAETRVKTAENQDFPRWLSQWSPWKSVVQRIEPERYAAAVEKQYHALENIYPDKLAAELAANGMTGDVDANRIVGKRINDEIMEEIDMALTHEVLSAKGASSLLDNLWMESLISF

B1: purified recombinant human guanylate-binding protein 1 (hGBP1) (natural protein, UniProt P32455 1-592, looked up)
chain: MASEIHMTGPMCLIENTNGRLMANPEALKILSAITQPMVVVAIVGLYRTGKSYLMNKLAGKKKGFSLGSTVQSHTKGIWMWCVPHPKKPGHILVLLDTEGLGDVEKGDNQNDSWIFALAVLLSSTFVYNSIGTINQQAMDQLYYVTELTHRIRSKSSPDENENEVEDSADFVSFFPDFVWTLRDFSLDLEADGQPLTPDEYLTYSLKLKKGTSQKDETFNLPRLCIRKFFPKKKCFVFDRPVHRRKLAQLEKLQDEELDPEFVQQVADFCSYIFSNSKTKTLSGGIQVNGPRLESLVLTYVNAISSGDLPCMENAVLALAQIENSAAVQKAIAHYEQQMGQKVQLPTETLQELLDLHRDSEREAIEVFIRSSFKDVDHLFQKELAAQLEKKRDDFCKQNQEASSDRCSALLQVIFSPLEEEVKAGIYSKPGGYRLFVQKLQDLKKKYYEEPRKGIQAEEILQTYLKSKESMTDAILQTDQTLTEKEKEIEVERVKAESAQASAKMLQEMQRKNEQMMEQKERSYQEHLKQLTEKMENDRVQLLKEQERTLALKLQEQEQLLKEGFQKESRIMKNEIQDLQTKMRRRKACTIS
notes: also called pSUMO-hGBP1
Kd [1]: 370 nM | Kd [2]: 1500 nM
